Literature values as cited in publication PMC7751257.
pKd: −log10 of the molar value.

Target: Spike RBD RBD (SARS-CoV-2) (UniProt P0DTC2)

SBP1 α1 helix 23-mer (from UniProt Q9BYF1)
pKd: 7.33
